Measured values taken from PMC4227695, “Combining Anti-ERBB3 Antibodies Specific for Domain I and Domain III Enhances the Anti-Tumor Activity over the Individual Monoclonal Antibodies” (PLoS ONE, 2014).

How the values were obtained:
[1] = target: T1, intact ERBB3 extracellular domain (dI-IV, aa20-639) (Homo sapiens, UniProt P21860); test: ELISA; apparent; ERBB3 extracellular domain immobilised; 4-fold serial dilutions of IgG (1333-0.02 nM); detected with HRP-conjugated anti-human Fc
T1 construct: ERBB3/HER3 extracellular domain, domains I-IV, aa20-639; also called ERBB3 ECD; intact ERBB3 ECD; source: purified from culture supernatant by IMAC (HisTrap)
T1 sequence (P21860 20-639): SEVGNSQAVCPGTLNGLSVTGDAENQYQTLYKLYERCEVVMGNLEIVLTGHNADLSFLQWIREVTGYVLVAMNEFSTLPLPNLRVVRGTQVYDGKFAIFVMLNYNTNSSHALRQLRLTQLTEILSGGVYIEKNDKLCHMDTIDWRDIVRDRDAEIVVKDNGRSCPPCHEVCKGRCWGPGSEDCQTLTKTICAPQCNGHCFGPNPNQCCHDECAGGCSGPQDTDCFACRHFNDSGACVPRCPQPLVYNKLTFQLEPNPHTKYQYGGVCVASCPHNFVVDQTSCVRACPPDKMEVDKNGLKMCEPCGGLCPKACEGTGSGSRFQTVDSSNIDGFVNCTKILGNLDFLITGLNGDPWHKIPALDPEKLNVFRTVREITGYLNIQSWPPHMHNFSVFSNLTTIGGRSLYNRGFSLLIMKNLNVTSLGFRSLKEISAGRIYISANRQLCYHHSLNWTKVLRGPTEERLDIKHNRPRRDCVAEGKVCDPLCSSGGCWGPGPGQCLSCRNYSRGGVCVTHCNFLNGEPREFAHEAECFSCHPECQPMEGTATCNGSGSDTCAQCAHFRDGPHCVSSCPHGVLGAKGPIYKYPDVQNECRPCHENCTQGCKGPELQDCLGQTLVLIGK

[2] = target: T2, ERBB3 extracellular domain I (dI, aa20-207) (Homo sapiens, UniProt P21860); test: native gel or EMSA; IgG (30-40 ug) with dI at 1.5x and 3x molar ratios of IgG:dI, 4 uL reaction, 30 min at room temperature; 12.5% native acrylamide gel (PhastGel), stained; loss of free dI read; conditions: both partners purified
T2 construct: ERBB3/HER3 domain I, aa20-207; Sub-cloned into pSEC-Tag2/HygroA (vector-supplied secretion signal; the vector may add further tag residues); source: HEK293, stably expressed, purified from culture supernatant (IMAC, HisTrap)
T2 sequence (P21860 20-207): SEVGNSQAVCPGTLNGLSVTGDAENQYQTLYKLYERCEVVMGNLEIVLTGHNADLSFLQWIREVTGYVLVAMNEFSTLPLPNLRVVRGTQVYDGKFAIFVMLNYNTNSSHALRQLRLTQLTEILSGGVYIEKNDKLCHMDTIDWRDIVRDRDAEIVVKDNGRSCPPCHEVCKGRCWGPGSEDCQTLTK

ERBB3 on BT-474 cells = target: T3, ERBB3 on BT-474 cells (Homo sapiens, UniProt P21860); test: flow cytometry on cells; 0, 0.5, 2, 5 ug IgG with BT-474 cells (250,000 cells/assay); detected with FITC-conjugated anti-human Fc; conditions: one partner purified
T3 construct: ERBB3/HER3 receptor on the surface of BT-474 breast cancer cells; Also used for the functional rows, where the cells were BT-474, NCI-N87 and ACHN; also called HER3; source: endogenous, BT-474 cells
T3 sequence (P21860 20-1342): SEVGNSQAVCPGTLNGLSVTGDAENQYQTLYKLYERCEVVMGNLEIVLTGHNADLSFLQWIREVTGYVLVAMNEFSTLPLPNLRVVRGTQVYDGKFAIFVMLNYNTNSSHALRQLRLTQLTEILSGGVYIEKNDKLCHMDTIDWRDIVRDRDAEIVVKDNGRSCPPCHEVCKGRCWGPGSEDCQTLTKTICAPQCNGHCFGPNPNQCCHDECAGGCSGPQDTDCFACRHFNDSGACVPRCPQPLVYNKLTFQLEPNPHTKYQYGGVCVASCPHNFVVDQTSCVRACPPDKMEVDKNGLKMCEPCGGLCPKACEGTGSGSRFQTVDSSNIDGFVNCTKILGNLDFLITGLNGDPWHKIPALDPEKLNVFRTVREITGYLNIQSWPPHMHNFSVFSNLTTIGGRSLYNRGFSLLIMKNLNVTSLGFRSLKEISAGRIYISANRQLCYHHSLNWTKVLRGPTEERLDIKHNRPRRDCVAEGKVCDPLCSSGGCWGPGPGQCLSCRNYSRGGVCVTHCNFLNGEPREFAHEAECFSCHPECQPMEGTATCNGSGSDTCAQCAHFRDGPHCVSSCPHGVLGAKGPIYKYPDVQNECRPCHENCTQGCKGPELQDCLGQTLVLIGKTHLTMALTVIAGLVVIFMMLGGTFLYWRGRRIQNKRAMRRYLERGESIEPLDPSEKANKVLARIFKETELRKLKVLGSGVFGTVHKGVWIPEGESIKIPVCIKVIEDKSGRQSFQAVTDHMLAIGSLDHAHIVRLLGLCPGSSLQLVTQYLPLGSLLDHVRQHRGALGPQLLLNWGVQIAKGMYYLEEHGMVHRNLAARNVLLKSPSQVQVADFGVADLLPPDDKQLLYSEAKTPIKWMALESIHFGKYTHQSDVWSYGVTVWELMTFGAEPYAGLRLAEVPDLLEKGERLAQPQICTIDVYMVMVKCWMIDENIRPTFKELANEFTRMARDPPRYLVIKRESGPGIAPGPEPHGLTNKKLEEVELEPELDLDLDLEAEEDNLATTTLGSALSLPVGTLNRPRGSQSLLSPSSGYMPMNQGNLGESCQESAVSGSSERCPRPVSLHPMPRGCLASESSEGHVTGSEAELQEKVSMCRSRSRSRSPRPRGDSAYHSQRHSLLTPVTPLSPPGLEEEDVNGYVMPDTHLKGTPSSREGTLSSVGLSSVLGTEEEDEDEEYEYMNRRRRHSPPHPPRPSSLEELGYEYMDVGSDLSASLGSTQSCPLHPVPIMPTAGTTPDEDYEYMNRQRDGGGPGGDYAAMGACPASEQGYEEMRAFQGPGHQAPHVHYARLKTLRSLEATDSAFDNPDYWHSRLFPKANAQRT

[3] = target: T4, ERBB3 extracellular domains I-II (dI-II, aa20-329) (Homo sapiens, UniProt P21860); test: pull-down; called immunoprecipitation: scFv coupled to AminoLink agarose (about 80 ug scFv, 20-50 fold excess) incubated 1 h at room temperature with 5 ug ERBB3 ECD fragment in 40 uL; washed 3x with PBS; supernatant and pellet fractions on SDS-PAGE; conditions: both partners purified
T4 construct: ERBB3/HER3 domains I-II, aa20-329; Sub-cloned into pSEC-Tag2/HygroA (vector-supplied secretion signal; the vector may add further tag residues); source: HEK293, stably expressed, purified from culture supernatant (IMAC, HisTrap)
T4 sequence (P21860 20-329): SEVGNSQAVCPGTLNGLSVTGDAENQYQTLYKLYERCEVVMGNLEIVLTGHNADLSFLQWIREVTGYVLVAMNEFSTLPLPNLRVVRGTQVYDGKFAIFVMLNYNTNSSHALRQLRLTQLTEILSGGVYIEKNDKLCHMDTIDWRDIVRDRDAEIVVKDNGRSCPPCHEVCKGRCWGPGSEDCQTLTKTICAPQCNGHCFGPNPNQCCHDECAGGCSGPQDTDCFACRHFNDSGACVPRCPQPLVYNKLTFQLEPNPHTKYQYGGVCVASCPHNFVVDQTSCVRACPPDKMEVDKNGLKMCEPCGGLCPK

[4] = target: T1, intact ERBB3 extracellular domain …; test: as above; conditions: both partners purified
[5] = target: T2, ERBB3 extracellular domain I (dI, …); test: as above; conditions: both partners purified
[6] = target: T5, ERBB3 extracellular domain III (dIII, aa311-477) (Homo sapiens, UniProt P21860); test: as above; conditions: both partners purified
T5 construct: ERBB3/HER3 domain III, aa311-477; Subcloned into pMTBiPV5HISa (vector-supplied secretion signal; the vector may add further tag residues); source: S2 cells, stably expressed, purified from culture supernatant (IMAC, HisTrap)
T5 sequence (P21860 311-477): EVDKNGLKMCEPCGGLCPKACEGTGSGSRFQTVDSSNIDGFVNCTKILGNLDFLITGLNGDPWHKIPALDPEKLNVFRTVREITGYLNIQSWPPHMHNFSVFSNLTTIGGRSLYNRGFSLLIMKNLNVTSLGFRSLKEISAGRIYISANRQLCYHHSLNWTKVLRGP

[7] = target: T6, ERBB3 extracellular domains III-IV (dIII-IV, aa310-616) (Homo sapiens, UniProt P21860); test: as above; conditions: both partners purified
T6 construct: ERBB3/HER3 domains III-IV, aa310-616; source: purified from culture supernatant by IMAC (HisTrap)
T6 sequence (P21860 310-616): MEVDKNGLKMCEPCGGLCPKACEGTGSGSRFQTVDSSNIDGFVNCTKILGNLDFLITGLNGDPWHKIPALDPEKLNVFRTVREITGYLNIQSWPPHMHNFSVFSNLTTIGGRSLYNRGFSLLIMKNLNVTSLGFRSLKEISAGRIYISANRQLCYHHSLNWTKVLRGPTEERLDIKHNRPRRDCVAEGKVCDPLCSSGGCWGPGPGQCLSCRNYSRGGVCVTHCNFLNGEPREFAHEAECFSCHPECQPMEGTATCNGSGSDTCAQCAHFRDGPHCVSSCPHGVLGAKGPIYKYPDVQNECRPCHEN

| Binder | Kd [1] | binding result (ERBB3 on BT-474 cells) | binding result [3] | binding result [4] | binding result [5] | binding result [6] | binding result [7] | binding result [2] |
| --- | --- | --- | --- | --- | --- | --- | --- | --- |
| F4 anti-ERBB3 IgG (human IgG1 format) (antibody, V domains shown, F4 variable heavy (Vh) domain; human IgG1 heavy chain constant region; F4 variable light (Vl) domain; light chain constant domain; IgG1; also called F4 IgG; source: purified from conditioned media by protein A chromatography; copies: 2 + 2) VH: QVQLQESGGGLVKPGGSLRLSCAASGFTFSSYAMSWVRQAPGKGLEWVSTISGSGGSTYYADSVKGRFTISRDNSKNTLYLQMNSLRAEDTAVYYCAKGYSSSWSEVASGYWGQGTLVTVSS VL: DIVMTQSPSSLSASVGDRVTITCRASQGIRNDLGWYQQKAGKAPKLLIYAASSLQSGVPSRFSGSGSGTDFTLTISSLQPDDFATYFCQQAHSFPPTFGGGTKVEIK | 4.8 nM | binds | – | – | – | – | – | binds |
| F4 anti-ERBB3 single-chain Fv (scFv, V domains shown, F4 variable heavy (Vh) domain; linker of the scFv; F4 variable light (Vl) domain; Coupled to AminoLink agarose in the immunoprecipitations; also called F4 scFv) VH: QVQLQESGGGLVKPGGSLRLSCAASGFTFSSYAMSWVRQAPGKGLEWVSTISGSGGSTYYADSVKGRFTISRDNSKNTLYLQMNSLRAEDTAVYYCAKGYSSSWSEVASGYWGQGTLVTVSS VL: DIVMTQSPSSLSASVGDRVTITCRASQGIRNDLGWYQQKAGKAPKLLIYAASSLQSGVPSRFSGSGSGTDFTLTISSLQPDDFATYFCQQAHSFPPTFGGGTKVEIK | – | – | binds | binds | binds | – | – | – |

More lines, main results first:

| Kd [1] | binding result (ERBB3 on BT-474 cells) | binding result [3] | binding result [4] | binding result [5] | binding result [6] | binding result [7] | Binder | binding result [2] |
| --- | --- | --- | --- | --- | --- | --- | --- | --- |
| 11.1 nM | binds | – | – | – | – | – | A5 anti-ERBB3 IgG (human IgG1 format) (antibody, V domains shown, A5 variable heavy (Vh) domain; human IgG1 heavy chain constant region; A5 variable light (Vl) domain; light chain constant domain; IgG1; also called A5 IgG; source: purified from conditioned media by protein A chromatography; copies: 2 + 2) VH: QVQLVQSGGGLVKPGGSLRLSCAASGFSFNTYDMNWVRQAPGKGLEWVSSISSSSSYIYYADSVKGRFTISRDNAKNSLYLQMNSLRAEDTAVYYCARDGVATTPFDYWGQGTLVTVSS VL: QSVLTQPPSVSGAPGQRVTISCTGSSSNIGAGYDVHWYQQLPGTAPKLLIYGNSNRPSGVPDRFSGSKSGTSASLAITGLQAEDEADYYCQSYDSSLSALFGGGTKLTVL | no binding (tested: 1.5x and 3x Molar excess of antibody) |
| – | – | – | binds | – | binds | binds | A5 anti-ERBB3 single-chain Fv (scFv, V domains shown, A5 variable heavy (Vh) domain; linker of the scFv; A5 variable light (Vl) domain; Coupled to AminoLink agarose in the immunoprecipitations; also called A5 scFv) VH: QVQLVQSGGGLVKPGGSLRLSCAASGFSFNTYDMNWVRQAPGKGLEWVSSISSSSSYIYYADSVKGRFTISRDNAKNSLYLQMNSLRAEDTAVYYCARDGVATTPFDYWGQGTLVTVSS VL: QSVLTQPPSVSGAPGQRVTISCTGSSSNIGAGYDVHWYQQLPGTAPKLLIYGNSNRPSGVPDRFSGSKSGTSASLAITGLQAEDEADYYCQSYDSSLSALFGGGTKLTVL | – |
